In PMC8924993:

Target: integrin αIIbβ3 (human (endogenous in HEL)) (UniProt P08514)
Assay: proximity ligation

talin, sequence (Q9Y490 whole entry): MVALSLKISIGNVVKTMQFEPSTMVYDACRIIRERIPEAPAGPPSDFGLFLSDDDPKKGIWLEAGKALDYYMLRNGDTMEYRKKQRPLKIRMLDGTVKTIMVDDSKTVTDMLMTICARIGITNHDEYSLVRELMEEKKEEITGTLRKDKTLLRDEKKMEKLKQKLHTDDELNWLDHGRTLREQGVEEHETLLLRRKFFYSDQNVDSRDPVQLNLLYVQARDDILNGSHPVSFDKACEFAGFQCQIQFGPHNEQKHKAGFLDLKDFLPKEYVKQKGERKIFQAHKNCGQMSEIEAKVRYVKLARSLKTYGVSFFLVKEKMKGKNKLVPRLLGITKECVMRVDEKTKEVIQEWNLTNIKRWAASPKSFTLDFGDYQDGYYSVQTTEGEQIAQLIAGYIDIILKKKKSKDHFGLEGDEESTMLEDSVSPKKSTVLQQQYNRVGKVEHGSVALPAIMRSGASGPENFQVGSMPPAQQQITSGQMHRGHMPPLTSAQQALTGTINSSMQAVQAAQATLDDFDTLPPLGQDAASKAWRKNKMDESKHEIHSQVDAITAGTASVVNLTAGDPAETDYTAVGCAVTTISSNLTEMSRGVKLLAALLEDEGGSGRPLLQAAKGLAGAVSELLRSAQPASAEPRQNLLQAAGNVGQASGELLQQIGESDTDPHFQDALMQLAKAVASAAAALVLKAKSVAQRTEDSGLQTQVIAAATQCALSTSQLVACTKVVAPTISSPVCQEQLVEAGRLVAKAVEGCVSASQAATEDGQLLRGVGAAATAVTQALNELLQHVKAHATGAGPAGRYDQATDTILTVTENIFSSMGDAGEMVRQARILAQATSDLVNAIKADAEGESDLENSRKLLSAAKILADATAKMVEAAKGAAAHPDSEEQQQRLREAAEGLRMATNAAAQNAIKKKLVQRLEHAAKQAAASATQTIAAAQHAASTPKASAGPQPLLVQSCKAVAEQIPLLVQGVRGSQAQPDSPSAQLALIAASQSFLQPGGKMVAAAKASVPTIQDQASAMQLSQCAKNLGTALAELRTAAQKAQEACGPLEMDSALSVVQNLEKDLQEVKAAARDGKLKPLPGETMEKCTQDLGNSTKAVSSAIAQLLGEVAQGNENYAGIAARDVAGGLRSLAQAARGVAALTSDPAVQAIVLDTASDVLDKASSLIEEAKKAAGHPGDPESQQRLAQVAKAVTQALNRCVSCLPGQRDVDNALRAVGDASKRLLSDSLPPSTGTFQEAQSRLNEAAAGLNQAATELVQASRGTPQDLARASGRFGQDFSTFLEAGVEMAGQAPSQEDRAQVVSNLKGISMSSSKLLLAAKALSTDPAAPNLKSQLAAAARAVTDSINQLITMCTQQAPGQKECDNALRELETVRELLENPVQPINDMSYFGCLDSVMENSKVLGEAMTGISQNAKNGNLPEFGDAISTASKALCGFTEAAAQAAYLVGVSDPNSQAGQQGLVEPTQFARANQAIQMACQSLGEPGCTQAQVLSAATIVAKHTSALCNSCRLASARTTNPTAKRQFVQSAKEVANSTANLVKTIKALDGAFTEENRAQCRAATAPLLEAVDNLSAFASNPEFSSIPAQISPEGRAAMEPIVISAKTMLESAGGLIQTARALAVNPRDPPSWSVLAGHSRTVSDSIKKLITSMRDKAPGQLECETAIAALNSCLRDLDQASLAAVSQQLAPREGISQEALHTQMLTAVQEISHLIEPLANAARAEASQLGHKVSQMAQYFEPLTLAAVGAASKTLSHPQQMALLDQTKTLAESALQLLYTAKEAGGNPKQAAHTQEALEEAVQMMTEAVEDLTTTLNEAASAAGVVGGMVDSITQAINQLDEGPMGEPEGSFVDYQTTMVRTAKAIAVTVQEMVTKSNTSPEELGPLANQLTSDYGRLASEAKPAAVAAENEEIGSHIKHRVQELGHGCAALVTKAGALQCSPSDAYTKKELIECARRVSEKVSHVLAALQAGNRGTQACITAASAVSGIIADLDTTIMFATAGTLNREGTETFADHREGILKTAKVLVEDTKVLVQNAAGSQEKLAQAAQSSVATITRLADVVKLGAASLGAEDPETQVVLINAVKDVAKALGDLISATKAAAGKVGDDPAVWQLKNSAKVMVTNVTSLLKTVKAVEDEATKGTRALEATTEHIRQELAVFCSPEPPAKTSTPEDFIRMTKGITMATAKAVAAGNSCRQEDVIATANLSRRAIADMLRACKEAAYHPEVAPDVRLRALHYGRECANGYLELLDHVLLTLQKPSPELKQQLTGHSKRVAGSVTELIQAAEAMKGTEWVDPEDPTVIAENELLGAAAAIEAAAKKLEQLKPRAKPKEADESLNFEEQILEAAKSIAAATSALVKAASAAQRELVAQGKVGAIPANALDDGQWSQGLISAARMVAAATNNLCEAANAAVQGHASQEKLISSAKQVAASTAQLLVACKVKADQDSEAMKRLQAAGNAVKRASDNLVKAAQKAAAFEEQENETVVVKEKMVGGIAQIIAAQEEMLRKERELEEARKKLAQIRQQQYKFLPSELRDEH

PLA dots/cell (with PMA; FLNa-Del1 cells) [dots/cell]	PLA dots/cell (without PMA; FLNa-Del1 cells) [dots/cell]	PLA dots/cell (no PMA; control, FLNa WT and FLNa-Del1 cells) [dots/cell]	PLA dots/cell (with 10 µM ROCK inhibitor Y-27632; FLNa WT cells, Figure 5H) [dots/cell]	PLA dots/cell (with PMA and 10 µM EHop-016; FLNa-Del1 cells) [dots/cell]	PLA dots/cell (with PMA and 10 µM Y-27632; FLNa WT cells) [dots/cell]	PLA dots/cell (with PMA and Y-27632; FLNa-Del1 cells) [dots/cell]	PLA dots/cell (with PMA, without EHop-016; FLNa-Del1 cells) [dots/cell]	PLA dots/cell (with PMA, without Y-27632; FLNa WT cells) [dots/cell]	PLA dots/cell (with PMA, without Y-27632; FLNa-Del1 cells) [dots/cell]	PLA dots/cell (with PMA; FLNa WT cells) [dots/cell]	PLA dots/cell (with PMA; FLNa-Del2 cells) [dots/cell]	PLA dots/cell (with PMA; FLNa-WT cells) [dots/cell]	PLA dots/cell (without ROCK inhibitor; FLNa WT cells, Figure 5H) [dots/cells]	Substance
7.2	17.6													FLNa-Del1, filamin A mutant lacking the N-terminal actin-binding domain (CH1-CH2) (domain or fragment)
15	4.6	5	17.7	4.4	10.8	13.2	20.4	4	14.9	8.2	21.2	7.1	9.1	talin (from UniProt Q9Y490 1-2541) (natural protein)
